Biological target: T1, antigen 4-1BB (Sino Biological, Cat. No. 10041-H08H) (UniProt Q07011 24-186)
T1 construct: Bought protein used as SPR analyte; also called CD137
Test: SPR (Biacore T200), sample captured on the chip by Fc, 4-1BB as analyte

T1 sequence (Q07011 24-186 limits assumed): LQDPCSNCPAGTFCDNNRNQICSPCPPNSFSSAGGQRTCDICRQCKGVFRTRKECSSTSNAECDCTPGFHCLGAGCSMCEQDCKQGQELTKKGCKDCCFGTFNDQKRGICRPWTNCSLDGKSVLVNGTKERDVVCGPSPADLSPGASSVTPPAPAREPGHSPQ

B1: Urelumab (antibody, V domains shown)
VH: QVQLQQWGAGLLKPSETLSLTCAVYGGSFSGYYWSWIRQSPEKGLEWIGEINHGGYVTYNPSLESRVTISVDTSKNQFSLKLSSVTAADTAVYYCARDYGPGNYDWYFDLWGRGTLVTVSS
VL: EIVLTQSPATLSLSPGERATLSCRASQSVSSYLAWYQQKPGQAPRLLIYDASNRATGIPARFSGSGSGTDFTLTISSLEPEDFAVYYCQQRSNWPPALTFGGGTKVEIK
B1 showed a Kd of 3.22 nM, a koff of 0.00159 s⁻¹ and a kon of 496000 M⁻¹ s⁻¹.
